{"source": "patent US20230322857A1", "about": "“RECOMBINANTLY ENGINEERED POLYPEPTIDES CAPABLE OF RECYCLING NONCANONICAL COFACTORS” (The Regents of the University of California, priority 2022, published 2023)", "key": {"[1]": {"assay": "Steady state kinetics of glutathione reductase (Gor) variants with NMNH", "assay_type": "biochemical", "details": "for Km: enzyme could not be saturated, 96 mM Tris-Cl pH 7.5, 2.5 mM GSSG", "procedure": "(§1) Expression and Purification of Gor Wild-type and Variants. E. coli Gor (EC 1.6.4.2) is a homo-dimeric flavoenzyme containing 450 amino acid residues with 1 FAD per subunit. To prevent interference from endogenous protein, Gor wild-type and variants were expressed using E. coli Δgor::kan strain containing pQElac based plasmids encoding for the Gor wild-type or variants. 1% (v/v) cells from an overnight culture were cultured in 2×YT media with 200 μg/mL ampicillin and 50 μg/mL kanamycin in shake flasks at 37° C. in a rotary shaker to an OD600 of 0.4-0.6. The cultures were then induced with 0.5 mM IPTG and incubated at 30° C. with shaking for 24 h. The cells were harvested with centrifugation and lysed by bead beating with Zymo His Binding Buffer (Zymo Research, CA, USA). Protein purification was performed with Zymo His-Spin Protein miniprep purification kit according to the manufacturer's instructions. The concentrations of purified protein were quantified by Coomassie dye—based assays (Bradford) using BSA (Bovine Serum Albumin) as standards.\n(§2) Specific Activity and Steady State Kinetic Analyses for Gor Wild-type and Variants. The specific activity and kinetic parameters of Gor with the different cofactors, shown in FIG. 1, were measured using the following methods. For measuring the specific activity with NMNH, the 100 μL reaction mixture contained 96 mM potassium phosphate buffer pH 7.5, 2.5 mM GSSG and 0.8 mM NMNH. NMNH was generated using methods described in Black et al. (Nat. Chem. Biol. 16:87-94 (2020). Briefly, 4 mM NMN^+ was incubated in a solution containing 50 mM Tris-Cl at pH 8.5, 0.2 mM EDTA, 50 mM Na2HPO4, 5 mM D-glyceraldehyde-3-phosphate, and 28 μM of purified E. coli glyceraldehyde-3-phosphate dehydrogenase. The reaction was incubated at 30° C. for 8 h. The protein was removed by an Amicon Ultra 3 K filter, and the flow-through was dried under vacuum. Assays investigating the steady-state kinetic parameters were completed with 100 μL reaction mixtures containing 96 mM Tris-Cl buffer pH 7.5, 2.5 mM GSSG and varied cofactor concentrations from 0.01 mM to 1.6 mM. The assay was started by addition of 10 μL of purified protein at appropriate concentration at 25° C. The kinetic parameters were measured by monitoring the NAD(P)H consumption at 340 nm in 96-well plate. Data was fit to the Michaelis-Menten equation to generate estimates of apparent catalytic efficiency (kcat/Km). The results are the average of three independent experiments."}, "[2]": {"assay": "Specific activity of Gor variants with NMNH", "assay_type": "biochemical", "procedure": "as §1\nSpecific Activity and Steady State Kinetic Analyses for Gor Wild-type and Variants. The specific activity and kinetic parameters of Gor with the different cofactors, shown in FIG. 1, were measured using the following methods. For measuring the specific activity with NMNH, the 100 μL reaction mixture contained 96 mM potassium phosphate buffer pH 7.5, 2.5 mM GSSG and 0.8 mM NMNH. […] The kinetic parameters were measured by monitoring the NAD(P)H consumption at 340 nm in 96-well plate. […]"}, "[3]": {"assay": "Steady state kinetics of glutathione reductase (Gor) variants with NADPH", "assay_type": "biochemical", "procedure": "as §1\nas §2, with “Assays investigating the steady-state kinetic parameters were completed with 100 μL reaction mixtures containing 96 mM Tris-Cl buffer pH 7.5, 2.5 mM GSSG and varied cofactor concentrations from 0.01 mM to 1.6 mM.” left out"}, "[4]": {"assay": "Steady state kinetics of glutathione reductase (Gor) variants with NADH", "assay_type": "biochemical", "details": "for Km: enzyme could not be saturated, 96 mM Tris-Cl pH 7.5, 2.5 mM GSSG", "procedure": "as §1, §2"}, "E. coli SHuffle strain": {"system": "E. coli SHuffle strain", "assay": "GDH-Gor coupled growth rescue in SHuffle strain", "assay_type": "cell-based, Escherichia coli", "details": "0.5 mM diamide, varying NMN^+ concentrations", "procedure": "Culture conditions for GDH-Gor coupled growth rescue in SHuffle strain. The electro-competent cells of SHuffle harboring pLZ311 or pLZ312 were made as follows: The SHuffle cells were cultured in 200 mL SOB media with spectinomycin at 30° C. with shaking until OD600 reached 0.4-0.6. The culture was chilled on ice for 15 min and the cells were pelleted at 4° C., 4,000×g. Collected cells were washed with 10% glycerol in water (sterile, ice cold) and resuspended with 5 mL of 10% glycerol in water (sterile, ice cold), and stored as 50 μL aliquots at −80° C.\nGlucose facilitator (encoded by glf) was used for uptake of unphosphorylated glucose into the cells. The co-transformation of Bs gdh and Zm glf was performed as follows: Thaw SHuffle/pLZ311 or SHuffle/pLZ312 electro-competent cells on ice, add 1 μL Bs gdh (pEK101 or pLZ210) and 1 μL Zm glf(pSM109) plasmid DNA to 50 μL competent cells, mix, and electroporate. Cells were recovered with 1 mL SOC at 37° C. with shaking for 1 h. The cells were added to 10 mL 2×YT with 10 g/L glucose, 0.5% arabinose, kanamycin, chloramphenicol, and ampicillin. After incubation at 37° C. with shaking for 10 h, 1 mL cells were washed 3 times and re-suspended in M9 buffer (1×BD Difco M9 Salts). Targeted dilutions after cells reached density of OD600 0.6 were prepared in M9 buffer and 5 μL aliquots were dispensed in series on an agar plate of M9 selection media containing 0.5 mM diamide, 1 g/L yeast extract, 10 g/L glucose, 0.5% arabinose, 0.5 mM IPTG, ampicillin, kanamycin, chloramphenicol and serial NMN concentrations of 0, 2, 4 and 6 mM. Selection plates were incubated at 37° C., and photos were taken to document growth progress."}, "[5]": {"details": "96 mM Tris-Cl buffer pH 7.5, 2.5 mM GSSG, varied cofactor concentrations, n = 3"}}, "note": "“Also recorded” adds a separate entry of the source."}
{"molecule": "Gor I178T (protein, UniProt P06715 1-450, looked up, variant I178T) Glutathione reductase: MTKHYDYIAIGGGSGGIASINRAAMYGQKCALIEAKELGGTCVNVGCVPKKVMWHAAQIREAIHMYGPDYGFDTTINKFNWETLIASRTAYIDRIHTSYENVLGKNNVDVIKGFARFVDAKTLEVNGETITADHILIATGGRPSHPDIPGVEYGIDSDGFFALPALPERVAVVGAGYTAVELAGVINGLGAKTHLFVRKHAPLRSFDPMISETLVEVMNAEGPQLHTNAIPKAVVKNTDGSLTLELEDGRSETVDCLIWAIGREPANDNINLEAAGVKTNEKGYIVVDKYQNTNIEGIYAVGDNTGAVELTPVAVAAGRRLSERLFNNKPDEHLDYSNIPTVVFSHPPIGTVGLTEPQAREQYGDDQVKVYKSSFTAMYTAVTTHRQPCRMKLVCVGSEEKIVGIHGIGFGMDEMLQGFAVALKMGATKKDFDNTVAIHPTAAEEFVTMR", "values": [{"measurement": "Km", "setting": "[1]", "result": "> 1500", "unit": "µM"}, {"measurement": "enhanced NMNH-dependent activity compared to the wild type", "setting": "[2]; 0.8 mM NMNH, 2.5 mM GSSG, vs wild type Ec Gor", "result": 4, "unit": "fold"}, {"measurement": "Km", "setting": "[3]; [5]", "result": "40 ± 10", "unit": "µM"}, {"measurement": "NADPH kcat", "setting": "[3]; [5]", "result": "31 ± 1", "unit": "s⁻¹"}, {"measurement": "Km", "setting": "[4]", "result": "> 1500", "unit": "µM"}]}
{"molecule": "G174H: Ec Gor single-mutation variant predicted to make salt bridge with the NMNH phosphate group (protein, UniProt P06715 1-450, looked up, variant G174H) Glutathione reductase: MTKHYDYIAIGGGSGGIASINRAAMYGQKCALIEAKELGGTCVNVGCVPKKVMWHAAQIREAIHMYGPDYGFDTTINKFNWETLIASRTAYIDRIHTSYENVLGKNNVDVIKGFARFVDAKTLEVNGETITADHILIATGGRPSHPDIPGVEYGIDSDGFFALPALPERVAVVHAGYIAVELAGVINGLGAKTHLFVRKHAPLRSFDPMISETLVEVMNAEGPQLHTNAIPKAVVKNTDGSLTLELEDGRSETVDCLIWAIGREPANDNINLEAAGVKTNEKGYIVVDKYQNTNIEGIYAVGDNTGAVELTPVAVAAGRRLSERLFNNKPDEHLDYSNIPTVVFSHPPIGTVGLTEPQAREQYGDDQVKVYKSSFTAMYTAVTTHRQPCRMKLVCVGSEEKIVGIHGIGFGMDEMLQGFAVALKMGATKKDFDNTVAIHPTAAEEFVTMR", "values": [{"measurement": "NMNH-dependent activity (in words) compared to the wild type", "setting": "[2]; vs wild type Ec Gor", "result": "enhanced NMNH-dependent activity"}]}
{"molecule": "Gor: wild type glutathione reductase from Escherichia coli (SEQ ID NO:7) (protein, listed as Escherichia coli) MTKHYDYIAIGGGSGGIASINRAAMYGQKCALIEAKELGGTCVNVGCVPKKVMWHAAQIREAIHMYGPDYGFDTTINKFNWETLIASRTAYIDRIHTSYENVLGKNNVDVIKGFARFVDAKTLEVNGETITADHILIATGGRPSHPDIPGVEYGIDSDGFFALPALPERVAVVGAGYIAVELAGVINGLGAKTHLFVRKHAPLRSFDPMISETLVEVMNAEGPQLHTNAIPKAVVKNTDGSLTLELEDGRSETVDCLIWAIGREPANDNINLEAAGVKTNEKGYIVVDKYQNTNIEGIYAVGDNTGAVELTPVAVAAGRRLSERLFNNKPDEHLDYSNIPTVVFSHPPIGTVGLTEPQAREQYGDDQVKVYKSSFTAMYTAVTTHRQPCRMKLVCVGSEEKIVGIHGIGFGMDEMLQGFAVALKMGATKKDFDNTVAIHPTAAEEFVTMR", "values": [{"measurement": "Km", "setting": "[1]", "result": "> 1500", "unit": "µM"}, {"measurement": "growth of SHuffle strain harboring the Gor variant", "setting": "E. coli SHuffle strain; listed as wild type Ec Gor", "result": "robust growth independent of NMN^+ supplementation"}, {"measurement": "growth of SHuffle strain harboring the Gor variant", "setting": "E. coli SHuffle strain; listed as wild type Gor", "result": "no growth defects"}, {"measurement": "Km", "setting": "[3]; [5]", "result": "60 ± 10", "unit": "µM"}, {"measurement": "NADPH kcat", "setting": "[3]; [5]", "result": "84 ± 7", "unit": "s⁻¹"}, {"measurement": "Km", "setting": "[4]", "result": "> 1500", "unit": "µM"}]}
{"molecule": "Gor Ortho: recombinantly engineered E. coli glutathione reductase with I178T, R198M, R204L (SEQ ID NO:8), NMNH-specific (protein) MTKHYDYIAIGGGSGGIASINRAAMYGQKCALIEAKELGGTCVNVGCVPKKVMWHAAQIREAIHMYGPDYGFDTTINKFNWETLIASRTAYIDRIHTSYENVLGKNNVDVIKGFARFVDAKTLEVNGETITADHILIATGGRPSHPDIPGVEYGIDSDGFFALPALPERVAVVGAGYTAVELAGVINGLGAKTHLFVMKHAPLLSFDPMISETLVEVMNAEGPQLHTNAIPKAVVKNTDGSLTLELEDGRSETVDCLIWAIGREPANDNINLEAAGVKTNEKGYIVVDKYQNTNIEGIYAVGDNTGAVELTPVAVAAGRRLSERLFNNKPDEHLDYSNIPTVVFSHPPIGTVGLTEPQAREQYGDDQVKVYKSSFTAMYTAVTTHRQPCRMKLVCVGSEEKIVGIHGIGFGMDEMLQGFAVALKMGATKKDFDNTVAIHPTAAEEFVTMR", "values": [{"measurement": "cofactor specificity switch from native cofactor NADPH to NMNH", "setting": "[1]; based on catalytic efficiency measured in vitro", "result": "60,000 fold"}, {"measurement": "Km", "setting": "[1]", "result": "> 1500", "unit": "µM"}, {"measurement": "catalytic efficiency (kcat/Km) for NMNH, fold higher than the wild type", "setting": "[1]; vs Ec Gor wild type", "result": "~4", "unit": "fold"}, {"measurement": "growth of SHuffle strain harboring the Gor variant", "setting": "E. coli SHuffle strain", "result": "supporting growth only with NMN^+ cycling; also recorded: only grows with NMNH regeneration"}, {"measurement": "change in NMNH-dependent activity on adding R198M-R204L to Ec Gor I178T", "setting": "[2]; vs Ec Gor I178T", "result": "only a modest decrease"}, {"measurement": "saturation of activity with natural cofactors", "setting": "[3]; concentrations up to 4 mM NAD(P)H", "result": "could not be saturated"}, {"measurement": "Km", "setting": "[3]; enzyme could not be saturated, 96 mM Tris-Cl pH 7.5, 2.5 mM GSSG", "result": "> 1500", "unit": "µM"}, {"measurement": "reduction of catalytic efficiency for NADPH compared to Ec Gor wild type", "setting": "[3]; vs Ec Gor wild type", "result": "~15,000 fold"}, {"measurement": "reduction of catalytic efficiency for NADPH compared to I178T single mutant", "setting": "[3]; vs I178T single mutant", "result": "~9,000 fold"}, {"measurement": "Km", "setting": "[4]", "result": "> 1500", "unit": "µM"}, {"measurement": "decrease of catalytic efficiency for NADH by the additional R198M-R204L mutations", "setting": "[4]; vs I178T", "result": "~2", "unit": "fold"}]}
